Measurements as given in the DeepSol protein solubility set.

assay: soluble on expression in E. coli; label from the status in PepcDB or PDB records

Sequence | soluble on expression in E. coli
GPGSMAVAAAAAAQTVAPRPPMQIGRADIAQMVASNPHVPTFSLPMNRQLEREFRTFRPVLIIAPLSTLPHWASEFQRFSRRHTAAAVSPCPGGVDAAERFTVYVLNGPRSERESRMGELLAHVERLTQQPPTPGGASGATPATPVVVIPHDMLTKPLRGALRQIRRVDWQVVAIDEAQRIKCARSFLFKKVCGLHSVSRRVLTGHTVADQHDGALPCSCAFRHRTRSSRVSCLSSWIAHCSPQVGRARWRIASCASSCAAVLIDFRCRSSCGVRGAS | soluble
MSSLTKQFVITQSVKNVSSIADGGEHVTPSEIHYGTEWYMRIKRDNGFMSFGLYCPMTGKTTNWSIVADIRVELMPLTGMWKSVECECKIAKSPSLISEVLRSTIMPWGRMMTNYVVDDALMIEVFVTIKSMTGFERPYNLRSFDESMEEFSDVVLLVGEKKFYVLRKYLAAQSKYFKALLLGSFEEGKSSEVTLTSIDPNDFQFFLEVLYGDSAINDLTVEGILHIADMYDTPMVVRKCEEFLIKGTKLPAKKKLQMAFRYKMENFMVLFFGNIQRKVFNFFRETTTLN | not soluble
MESQVRQNFHQDCEAGLNRTVNLKFHSSYVYLSMASYFNRDDVALSNFAKFFRERSEEEKEHAEKLIEYQNQRGGRVFLQSVEKPERDDWANGLEALQTALKLQKSVNQALLDLHAVAADKSDPHMTDFLESPYLSESVETIKKLGDHITSLKKLWSSHPGMAEYLFNKHTLG | soluble
MKKTIVFKCGGSVIRELSEEFYQNLKELRASGWKLAIVHGGGPEITNMLKRLNIKTEFSGGQRKTTKPVLEVAEMVLSGSVNKFFVAELAKHGLRAAGISGKDGGLLEADYLDPETYGEVGEIKKVDASMVNALMENGIIPVIAPLSMTSDCKTLNVNADLAASAVAGALEADKLMFVTDVDGIMKEKQRLDVLTPKEIQMLIKQEVITGGMIPKVNSALSALSDQVSEVMIVNGKGSFFAEQTFQGTKIVKAKEAVS | not soluble
SNAMSQKLYNMKFAAVYLALIAKVERKGGKAESVHQVTSWLTGYEVSDVLACLDRDVTYGDFFRQAPYYVPERIAITGKICGVRIEEIDDPLMQEIRRLDKLVDWLAKGKTSQQVLEKYEKHK | soluble
MLSRKKTKNEVSKPAEVQGKYVKKETSPLLRNLMPSFIRHGPTIPRRTDLCLPDSSATAFSASGDGIVSRNQSFLRTAIQRTPHEVMRRESHRLSAPSYLVRSLADVPRECGSSQSFLTEVNFAVENGDSGSRYFFSDNFFDGQRRRPLGDRAQEDYRYYEYNHDLFQRMPQSQGRHTSGIGRVTATSLGNLTNHGSEDLPLPPGWSVDWTMRGRKYYIDHNTNTTHWSHPLEREGLPPGWERVESSEFGTYYVDHTNKRAQYRHPCAPSVPRYDQPPPITYQPQQTERNQSLLVPANPYHTAEIPDWLQVYARAPVKYDHILKWELFQLADLDTYQGMLKLLFMKELEQIVKLYEAYRQALLTELENRKQRQQWYAQQHGKTFLS | soluble
MAHHHHHHMFLLCRTNLAKKIKDKIPYGVKQSQNYKDAKKQERLALEANRKLKESRGMLLDGKKNLFMCLRQNSDINWYRAGQILKHLEIHQRAKPDITPSLREKITNIANFVKKGR | soluble
MDLQTSSKFLQNQLAHLFQCERDSADVENSEGCFSTGNDPAFKDERLRFEFHTEPFNRRYLLRVVKVPP | not soluble
MENPDSAFLLFRNAPRLPLATMHTPLCGDSHQPDFAFRKPARDALLRPWNGRNHRCGLQDGREICQGQLPAHQKSYWSDCAALPRLFRAYGGAVVRGFLIVGNKAFTQPFSLNDLPGAGRMDVLCRCTSQALFISHGIRRDVEVYLLLLGPPSPPKSILIKGDEVRRMSPDERNVAGHIKKALAVECGKSWKKVHSGVYVSRKGLEELIEELSEKYSIIYLKEDGVDISNAQLPPNPLFVIGDHEGLTEEQEKVVERYAALKLSLSPLSLLAEQCVVIAHHHLDRLQF | not soluble
WYNFTKRAVKIVLIPVSWFMKAERFAKFENNISEKIDSFYEESVRMTKDWR | not soluble
SASLDRVKVLVLGDSGVGKSSLVHLLCQNQVLGNPSWTVGCSVDVRVHDYKEGTPEEKTCYIELWDVGGSVGSASSVKSTRAVFYNSVNGIIFVHDLTNKKSSQNLRRWSLEALNRDLVPTGVLVTNGDYDQEQFADNQIPLLVIGTKLDQIHETKRHEVLTTTAFLAEDFNPEEINLDCTNPRYLAAGSSNAVKLSRFFDKVIEKRYFLREGNQIPGFPDRKRFGAGTLKSLHYD | soluble
MGSDKIHHHHHHMNAQIQIIKTAQGHMALCQDTPKDIAPAWFAVDFWRAKDAVVGSSKGRYTTWFVAFEHSHWVLRHYWRGGLMEKFSKDAYVYTGLENTRAMAELRLLNILYHEDFAVPKPIAANIVRDGLFYRADIIIERVEGAEDLVAKLSKGLMNTEQWQALGATIAQFHQRGVYHADLNAKNILFQPAQTAPITPERFYLIDFDRGELKTPSPQWQQSNLDRLLRSFNKEQGKLPSLAFTADNWSSLMMGYQAAMQSA | not soluble
MSLQEELSVLLKAQYPLIYLVTSEEERAEQAVYRIVQEVTRHQRLFVWTVTHGFREYGVAQQKTHHNTMSPEAAIEWVVRQEPGIFIFKDLHPFISSPAVTRWLREAIASFKGTEKAIILMSPYQETPIELEKDVVVLDFALPDLVTLDGVLGQQLGKSRHALGEDSREKLLKAALGLTKDEAEKVYRKAYVKAGQLTEGEVEIVLSEKKQMIRRNEGHHHHHH | soluble
VGRATQSAKELDVKIKNVIRNVHILLKQISGTDGEGNNVPSGDFSREWAEAQRMMRELRNRNFGKHLREAEADKRESQLLLNRIRTWQKTHQGENNGLANSIRDSLNEYEAKLSDLRARLQEAAAQAKQANGLNQENERALGAIQRQVKEINSLQSDFTKYLTTADSSLLQTNIALQLMEKSQKEYEKLAASLNEARQELSDKVRELSRSAGKTSLVEEAEKHARSLQELAKQLEEIKRNASGDELVRCAVDAATAYENILNAIKAAEDAANRAASASESALQTVIKEDLPRKAKTLSSNSDKLLNEAKMTQKKLKQEVSPALNNLQQTLNIVTVQKEVIDTNLTTLRDGLHGIQRGDIDAMISSAKSMVRKANDITDEVLDGLNPIQTDVERIKDTYGRTQNEDFKKALTDADNSVNKLTNKLPDLWRKIESINQQLLPLGNISDNMDRIRELIQQARDAASKVAVPMRFNGKSGVEVRLPNDLEDLKGYTSLSLFLQRPNSRENGGTENMFVMYLGNKDASRDYIGMAVVDGQLTCVYNLGDREAELQVDQILTKSETKEAVMDRVKFQRIYQFARLNYTKGATSSKPETPGVYDMDGRNSNTLLNLDPENVVFYVGGYPPDFKLPSRLSFPPYKGCIELDDLNENVLSLYNFKKTFNLNTTEVEPCRRRKEESDKNYFEGTGYARVPTQPHAPIPTFGQTIQTTVDRGLLFFAENGDRFISLNIEDGKLMVRYKLNSELPKERGVGDAINNGRDHSIQIKIGKLQKRMWINVDVQNTIIDGEVFDFSTYYLGGIPIAIRERFNISTPAFRGCMKNLKKTSGVVRLNDTVGVTKKCSEDWKLVRSASFSRGGQLSFTDLGLPPTDHLQASFGFQTFQPSGILLDHQTWTRNLQVTLEDGYIELSTSDSGGPIFKSPQTYMDGLLHYVSVISDNSGLRLLIDDQLLRNSKRLKHISSSRQSLRLGGSNFEGCISNVFVQRLSLSPEVLDLTSNSLKRDVSLGGCSLNKPPFLMLLKGSTRFNKTKTFRINQLLQDTPVASPRSVKVWQDACSPLPKTQANHGALQFGDIPTSHLLFKLPQELLKPRSQFAVDMQTTSSRGLVFHTGTKNSFMALYLSKGRLVFALGTDGKKLRIKSKEKCNDGKWHTVVFGHDGEKGRLVVDGLRAREGSLPGNSTISIRAPVYLGSPPSGKPKSLPTNSFVGCLKNFQLDSKPLYTPSSSFGVSSCLGGPLEKGIYFSEEGGHVVLAHSVLLGPEFKLVFSIRPRSLTGILIHIGSQPGKHLCVYLEAGKVTASMDSGAGGTSTSVTPKQSLCDGQWHSVAVTIKQHILHLELDTDSSYTAGQIPFPPASTQEPLHLGGAPANLTTLRIPVWKSFFGCLRNIHVNHIPVPVTEALEVQGPVSLNGCPDQ | soluble
TSSLHPTRGKLLKRFAQIGPYIREQQCQESQFFFDCLAVCVNKKVTPEKREFWGWWMELERNGEQLIYYYQVGLFDKNGDWVNQVISKKDVIESIHETLIRFHDFLQAAVSELEMTLVPDEKMSNFPLPL | soluble
MNHTSFRAIVVNETENHQFVRKVVEREVSSLPEGDVFIQVHYSSLNYKDALSATGNKGVTRTYPHTPGIDAAGVVVSSEDATIKAGDQVIVTGYDLGMNTSGGFGEYIRVPSSWVVPLPEGMSLKESMMYGTAGFTAALSVYKLIGAGVKPSMGDVLVTGATGGVGSVAVSILSKLGFNVVGATGKMEEEDMLLRLGAKKVIHRAELNDESGSPMLKGIYAGVIDTVGGHMLETALKTVKYGGCVTTCGNVAGQELQTTVYPFILRGISLLGIDSVQCPVDVRRDVWTLLAKEWGNKELLSYTEECTLEELEKKFALILQGKLKGRTVVKI | not soluble
MTTPLISIRNLCVDYITDAGDVRACNNVSFDLAPGEVFGLAGESGCGKSTVAFSLMRLHKPPAFITGGEVIFNGEDILKYSDERMQAFRWKEMSMVFQSAMNALNPVLTMEEQFCDVITRHTNMTREQAKRRAEGLLEIVDIHPSRLNDYPHQFSGGMRQRLVIAIALALNPKMIIMDEPTTALDVVVQREILQKIYALKEEFGFSILFITHDLSLMVEFSDRIGIMYSGELIEVAPSKQILETPYHPYTKGLGSSFPPLTGPKTKLTGIPGNPLNLLDIPQGCRFQARCDRVHEACTKVPTVLRQIEHGRFSNCHLYTQSNATIKR | not soluble
GPGSMGSKYDRVKVKVHLDDEHYYILSRFILSKMLTACKLPTTAAVCVSLALKKSLVDQERLDISQRELEAATLSTMAQHGYGAAFTRLLPVMTRFFIERTPLIVFMAGSGCCGKTSMARSLSVRLNTHNIVSTDLLLDILRATHHAYPSSALRGDLVELSDERVLPCVSEHSLWLSDTLAVDDFVRLWRTLTRAIRSLVEGEVEKALVEGKVLIVEGSLIDLSLYHNYLLDSFQSQRGVIAVAFHISSDEMSRNFAVERLVSTYRSVLPLSYTDNYNGALEWVQCRLRAIEGEHLRVLRGDSSAMQLHCIDDSLCDPATGDSTSVRDLSESYSNETSSTCDTRQLRLSQDNAEIVPVYGVTNSMAASSRVCESMHGLILDRIISALKQKGPLNLEHGNVVWCQAMDSEYMSPTNDT | not soluble
MTASIFSGVIPALMTPCRQDRTPDFDALVRKGKELIADGMSAVVYCGSMGDWPLLTDEQRMEGVERLVKAGIPVIVGTGAVNTASAVAHAVHAQKVGAKGLMVIPRVLSRGSVIAAQKAHFKAILSAAPEIPAVIYNSPYYGFATRADLFFALRAEHKNLVGFKEFGGPADMRYAAENITSRDDEVTLMIGVDTAVVHGFVNCGATGAITGIGNVLPKEVIHLCKLSQAAAKGDADARARALELEQALAVLSSFDEGPDLVLYFKYMMVLKGDKEYTLHFNETDALTDSQRGYVEAQFKLFNSWYADWSKLPGAVQTCKAA | soluble
